The chains are these.
B1: HDV Ribozyme (parent)
chain: GGCCGGCAUGGUCCCAGCCUCCUCGCUGGCGCCGGCUGGGCAACAUUCCGAGGGGACCGUCCCCUCGGUAAUGGCGAAUGGGACCCA

This series covers variants of B1. The series can be described thus: self-cleavage, relative activity (ratio to wild type); higher = more cleavage; co-transcriptional.
As to G34U G67U, the self-cleavage is 0.231.

In the case of G34U G67A, the self-cleavage amounted to 0.115.

As for G34A G67U, the self-cleavage came out at 0.0811.

As to G34A G67A, the self-cleavage worked out at 0.104.

In the case of G34A G67C, the self-cleavage was determined as 0.0707.

Take G35A A70C: the self-cleavage was 0.434.

Take G35A A70G: the self-cleavage is 0.491.

As to C33U U37G, the self-cleavage was found to be 0.0462.

With G34C C62A, the self-cleavage came to 0.162.

Consider G34C C62U, for which the self-cleavage is 0.262.

For G34A U72C, the self-cleavage turned out to be 0.0692.

G34A U72G: the self-cleavage was 0.0326.

For G34C G74C, the self-cleavage was 0.0875.

As to G34C G74U, the self-cleavage came to 0.136.

On to G34C G74A, for which the self-cleavage worked out at 0.0354.

Take G34C U72A: the self-cleavage was determined as 0.17.

Take G34C U72G: the self-cleavage was determined as 0.222.

Consider C33U U72G, for which the self-cleavage worked out at 0.405.

Consider G34C G40U, for which the self-cleavage worked out at 0.151.

Take G34A G53U: the self-cleavage is 0.17.

As for G34A G53C, the self-cleavage is 0.215.

As for G34C U65C, the self-cleavage turned out to be 0.573.

Consider G34C G50A, for which the self-cleavage is 0.287.

For G34A C86U, the self-cleavage was 0.176.

In the case of G34A C86G, the self-cleavage was 0.121.

G34U G50A: the self-cleavage was 0.312.

Turning to G34U G50C, the self-cleavage amounted to 0.0906.

In the case of G34C G81U, the self-cleavage came to 0.0639.

Take G34C U69G: the self-cleavage is 0.703.

In the case of G34C U69C, the self-cleavage came to 0.249.

As for G35A G73U, the self-cleavage came out at 0.223.

In the case of G35A G73C, the self-cleavage was determined as 0.138.

Consider G35A G73A, for which the self-cleavage came out at 0.372.

Turning to G34U C64A, the self-cleavage was 0.268.

G34U C64G: the self-cleavage was determined as 0.277.

In the case of G34A U60G, the self-cleavage worked out at 0.237.

In the case of G34C G38C, the self-cleavage is 0.122.

Turning to G34C G38U, the self-cleavage is 0.0378.

Take G34C G38A: the self-cleavage stood at 0.0959.

For G34C A87U, the self-cleavage was determined as 0.192.

With G34C A87C, the self-cleavage is 0.224.

On to G34C A87G, for which the self-cleavage stood at 0.089.

Regarding G34A G35U, the self-cleavage is 0.113.

As to G34A G35A, the self-cleavage turned out to be 0.145.

For G34A G35C, the self-cleavage is 0.0378.

As for G35A G50A, the self-cleavage stood at 0.692.

G35A G50C: the self-cleavage amounted to 0.346.

With G35A C44A, the self-cleavage was found to be 0.

On to G35A C44U, for which the self-cleavage worked out at 0.188.

Take G35A C44G: the self-cleavage came out at 0.0639.

Consider G35A A83G, for which the self-cleavage stood at 0.258.

As to G35A A83U, the self-cleavage amounted to 0.507.

For G35A U69C, the self-cleavage was found to be 0.591.

As to G35A U69G, the self-cleavage amounted to 0.541.

For the variant G34C U46C, the self-cleavage turned out to be 0.332.

Regarding G34C G80U, the self-cleavage was found to be 0.203.

On to G35A C66G, for which the self-cleavage was found to be 0.655.

Turning to G35A C66A, the self-cleavage was 0.415.

For C33U U79G, the self-cleavage was 0.429.

Consider C33U U79C, for which the self-cleavage amounted to 0.325.

G35A G39U: the self-cleavage was determined as 0.128.

For the variant G35A G39A, the self-cleavage was 0.219.

Regarding G35A A56U, the self-cleavage was 0.72.

Turning to G34U A51G, the self-cleavage was 0.339.

Consider G34U A51C, for which the self-cleavage was determined as 0.0707.

For the variant G34A C84U, the self-cleavage is 0.142.

With G34A C84G, the self-cleavage is 0.104.

As to G34U C49G, the self-cleavage came out at 0.166.

Turning to G34C A51G, the self-cleavage was determined as 0.346.

Regarding G34C A51C, the self-cleavage worked out at 0.107.

In the case of G34C A51U, the self-cleavage came out at 0.141.

For the variant C33U U47C, the self-cleavage amounted to 0.682.

Regarding C33U U47G, the self-cleavage was found to be 0.692.

On to C33U U47A, for which the self-cleavage worked out at 0.872.

In the case of G34A G38U, the self-cleavage was 0.138.

Regarding C33U U46G, the self-cleavage worked out at 0.65.

Turning to G34C C36U, the self-cleavage is 0.0332.

Regarding G34A A70C, the self-cleavage was found to be 0.0941.

As for G34C G53U, the self-cleavage was 0.163.

In the case of G34C A42G, the self-cleavage was found to be 0.0554.

G34C A42U: the self-cleavage is 0.262.

As for G34A G52C, the self-cleavage was 0.0545.

With G34A G52A, the self-cleavage came to 0.286.

For G34A G52U, the self-cleavage is 0.143.

With G34U C62G, the self-cleavage is 0.117.

With G34U A70U, the self-cleavage is 0.182.

For G34U A70G, the self-cleavage worked out at 0.0997.

On to G34U A70C, for which the self-cleavage worked out at 0.17.

On to G34C A70G, for which the self-cleavage stood at 0.0898.

As to G34U C86A, the self-cleavage worked out at 0.325.

For G34U C86U, the self-cleavage is 0.187.

As to G34U C86G, the self-cleavage is 0.205.

As to G35A C49A, the self-cleavage was 0.591.

For G35A C49U, the self-cleavage is 0.596.

As to G34U C44G, the self-cleavage amounted to 0.173.

Turning to G34U C44U, the self-cleavage came out at 0.0241.

As to G34A C44A, the self-cleavage was found to be 0.089.

Take G34U C75G: the self-cleavage is 0.214.

In the case of G34U C75U, the self-cleavage was determined as 0.109.

In the case of G34U C75A, the self-cleavage is 0.107.

As for G34U G52U, the self-cleavage worked out at 0.0588.

Take G34U G52C: the self-cleavage worked out at 0.101.

For the variant G35A U65C, the self-cleavage was 0.521.

As for G34C C86G, the self-cleavage came out at 0.19.

In the case of G34C C86U, the self-cleavage came out at 0.237.

Regarding G34A C85U, the self-cleavage amounted to 0.163.

In the case of G34A C85A, the self-cleavage amounted to 0.199.

Regarding G34A C64U, the self-cleavage was determined as 0.133.

G34A C64A: the self-cleavage was found to be 0.128.

As to G34A C64G, the self-cleavage was determined as 0.0963.

With G34C C75U, the self-cleavage was 0.0405.

As to G34C C75G, the self-cleavage turned out to be 0.131.

On to G34C C75A, for which the self-cleavage worked out at 0.131.

In the case of G34A C36U, the self-cleavage amounted to 0.0623.

For the variant G34U U72A, the self-cleavage stood at 0.151.

In the case of G34U U72C, the self-cleavage was 0.164.

As to G34U A83G, the self-cleavage was 0.169.

Consider G35A G81U, for which the self-cleavage worked out at 0.105.

As to G35A G81C, the self-cleavage is 0.188.

Regarding G34U C48U, the self-cleavage was found to be 0.112.

For G34U C48G, the self-cleavage turned out to be 0.151.

With G34U C48A, the self-cleavage was found to be 0.251.

Turning to G34A A43U, the self-cleavage worked out at 0.

For the variant G34A A43C, the self-cleavage was 0.119.

As for G34U C58A, the self-cleavage was found to be 0.111.

Regarding G34U C58G, the self-cleavage worked out at 0.0811.

On to G34A C66G, for which the self-cleavage worked out at 0.138.

As to G35A G53C, the self-cleavage was found to be 0.65.

On to G34C C58G, for which the self-cleavage came out at 0.287.

For the variant G34U C84U, the self-cleavage amounted to 0.261.

With G34U C84A, the self-cleavage is 0.176.

Turning to G34U U69G, the self-cleavage amounted to 0.0361.

On to G34U A42U, for which the self-cleavage worked out at 0.252.

On to G34U A42C, for which the self-cleavage stood at 0.0963.

Regarding G34A U79C, the self-cleavage stood at 0.0773.

On to G34A U79G, for which the self-cleavage was determined as 0.0875.

On to G34A U79A, for which the self-cleavage worked out at 0.0755.

Take G34A C48U: the self-cleavage came out at 0.132.

Consider G34C A83G, for which the self-cleavage was 0.0959.

As to G34C A83C, the self-cleavage is 0.0898.

On to G35A G38U, for which the self-cleavage was 0.145.

As for G35A G38A, the self-cleavage is 0.0923.

As for G35A C64A, the self-cleavage was determined as 0.379.

As to G34C C61G, the self-cleavage worked out at 0.231.

In the case of G34C A45G, the self-cleavage came out at 0.147.

Turning to G34U G59U, the self-cleavage was found to be 0.229.

For the variant G34A A78C, the self-cleavage was 0.157.

G34A A78G: the self-cleavage is 0.157.

Take G35A C84A: the self-cleavage came out at 0.62.

On to G35A C84U, for which the self-cleavage is 0.464.

With G34C U37A, the self-cleavage was 0.297.

For G35A G40C, the self-cleavage is 0.163.

Turning to G34C U79G, the self-cleavage is 0.0615.

As for G34A G50U, the self-cleavage amounted to 0.187.

On to G34C C84G, for which the self-cleavage came out at 0.166.

In the case of G34C C84A, the self-cleavage turned out to be 0.

Take G34U C61U: the self-cleavage stood at 0.208.

G34U C61G: the self-cleavage was 0.378.

C33U U60G: the self-cleavage was determined as 0.935.

For C33U U60A, the self-cleavage is 0.696.

In the case of G34A C63U, the self-cleavage is 0.0656.

For the variant G34A U69A, the self-cleavage turned out to be 0.166.

Take G34A U69G: the self-cleavage was 0.306.

On to G34U A56C, for which the self-cleavage amounted to 0.219.

Turning to G34A C75G, the self-cleavage is 0.203.

As for G34A C57A, the self-cleavage is 0.13.

For G34A C57G, the self-cleavage was 0.0997.
